The target of assay [1] is T1, human melanocortin 1 receptor (human, UniProt Q01726 1-317).
T1 construct: whole, on cells; also called hMC1R; MC1R
Briefly: ratio of Ki values (MC4R over MC1R) from Eu-NDP-alpha-MSH competitive binding.

In assay [2] the target is T1, human melanocortin 1 receptor. Briefly: ratio of Ki values (MC5R over MC1R) from Eu-NDP-alpha-MSH competitive binding.
For assay [3] the target is unchanged. In words: competitive binding vs Eu-NDP-alpha-MSH, time-resolved fluorescence, HCT116/hMC1R cells. Here is the method: (§1) Competitive binding assays were performed using HCT116/hMC1R cells and HEK293/hMC4R or hMC5R as previously described, with slight modifications. HCT116/hMC1R cells were plated in black PerkinElmer 96-well plates and HEK293/hMC4R and HEK293/hMC5R cells were plated on SigmaScreen Poly-D-Lysine Coated Plates (SigmaAldrich), all at a density of 10,000-30,000 cells/well. Poly-D-Lysine Coated Plates contain a PDL polymer coating that creates a uniform positive charge at the surface of the plastic, thereby facilitating cell attachment, growth and differentiation. […] Both labeled and non-labeled ligands were diluted in binding media (DMEM, 1 mM 1,10-phenanthroline, 200 mg/L bacitracin, 0.5 mg/L leupeptin, 0.3% BSA). In the case of the triblock polymer micelle solutions, micelles were allowed to equilibrate in solution for a period of 30 min prior to cell addition. Cells were incubated with labeled and non-labeled ligands for 1 hour at 37° C. Following incubation, cells were washed three times with wash buffer (50 mM Tris-HCl, 0.2% BSA, 30 mM NaCl) and 50 µL of enhancement solution (PerkinElmer) was added to each well. Cells were incubated for an additional 30 min at 37° C. prior to reading. […] Competition curves were analyzed with GraphPad Prism software using the sigmoidal dose-response (variable slope) classical equation for nonlinear regression analysis.

The target in assay [4] is T2, human melanocortin 4 receptor (human, UniProt P32245 1-332).
T2 construct: whole, on cells; also called hMC4R; MC4R
T2 sequence (P32245 whole entry): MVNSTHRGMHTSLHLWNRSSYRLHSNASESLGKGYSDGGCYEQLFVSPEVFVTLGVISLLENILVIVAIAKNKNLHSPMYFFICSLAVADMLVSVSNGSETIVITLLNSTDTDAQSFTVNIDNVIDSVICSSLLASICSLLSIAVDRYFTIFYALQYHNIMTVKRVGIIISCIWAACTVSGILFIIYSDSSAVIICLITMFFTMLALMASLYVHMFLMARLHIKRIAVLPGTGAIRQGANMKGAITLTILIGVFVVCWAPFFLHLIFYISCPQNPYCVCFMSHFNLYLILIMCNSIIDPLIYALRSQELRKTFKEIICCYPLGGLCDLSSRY
Briefly: competitive binding vs Eu-NDP-alpha-MSH, time-resolved fluorescence, HEK293/hMC4R cells. Here is the method: as §1

In assay [5] the target is T3, human melanocortin 5 receptor (human, UniProt P33032 1-325).
T3 construct: whole, on cells; also called hMC5R; MC5R
T3 sequence (P33032 whole entry): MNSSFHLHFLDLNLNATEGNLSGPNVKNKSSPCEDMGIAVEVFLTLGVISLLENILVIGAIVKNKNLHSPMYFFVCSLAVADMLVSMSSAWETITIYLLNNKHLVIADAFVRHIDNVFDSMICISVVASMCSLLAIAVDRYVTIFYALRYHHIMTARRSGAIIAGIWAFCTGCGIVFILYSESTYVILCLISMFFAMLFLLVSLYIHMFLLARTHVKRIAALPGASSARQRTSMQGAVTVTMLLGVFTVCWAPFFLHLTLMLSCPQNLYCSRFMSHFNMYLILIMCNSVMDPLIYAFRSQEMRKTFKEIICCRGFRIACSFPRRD
In words: competitive binding vs Eu-NDP-alpha-MSH, time-resolved fluorescence, HEK293/hMC5R cells. The procedure: as §1

Assay [6] concerns the target T1, human melanocortin 1 receptor. Briefly: cell-based or functional assay.
The target in assay [7] is MC5R expressed in the kidneys of the xenograft-bearing mice. Briefly: cell-based or functional assay.
Chain of MC5R expressed in the kidneys of the xenograft-bearing mice (P41149 whole entry): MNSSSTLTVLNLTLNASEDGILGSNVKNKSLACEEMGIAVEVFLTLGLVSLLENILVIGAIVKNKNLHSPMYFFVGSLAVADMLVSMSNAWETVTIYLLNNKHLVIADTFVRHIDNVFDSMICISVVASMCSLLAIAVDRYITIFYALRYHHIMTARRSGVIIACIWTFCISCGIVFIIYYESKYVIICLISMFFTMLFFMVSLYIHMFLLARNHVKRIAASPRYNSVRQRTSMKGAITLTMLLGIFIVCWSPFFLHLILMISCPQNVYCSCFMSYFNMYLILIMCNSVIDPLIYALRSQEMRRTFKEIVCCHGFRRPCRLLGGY
The target of assay [8] is T1, human melanocortin 1 receptor. In words: competition binding vs Eu-NDP-a-MSH, time-resolved fluorescence, A375/hMC1R cells.
Assay [9] has the same target. Briefly: competitive binding vs Eu-NDP-alpha-MSH, HCT116/hMC1R cells.

Square brackets hold non-standard residues; d marks the D form. Side chains are listed from the residue outwards. * marks the point of attachment. IR800CW = near-infrared dye IRDye800CW (maleimide); Cy5 = Cy5 fluorescent dye (maleimide); d2Nal = N[C@H](Cc1ccc2ccccc2c1)C(=O)O; Butanoyl(4-Ph) = O=C(CCCc1ccccc1)*; Butanoyl(4-ethynyl) = C#CCCCC(=O)*; hPhe = N[C@@H](CCc1ccccc1)C(=O)O; Nle = CCCC[C@H](N)C(=O)O; Mpa = O=C(O)CCS

T1 sequence (Q01726 whole entry): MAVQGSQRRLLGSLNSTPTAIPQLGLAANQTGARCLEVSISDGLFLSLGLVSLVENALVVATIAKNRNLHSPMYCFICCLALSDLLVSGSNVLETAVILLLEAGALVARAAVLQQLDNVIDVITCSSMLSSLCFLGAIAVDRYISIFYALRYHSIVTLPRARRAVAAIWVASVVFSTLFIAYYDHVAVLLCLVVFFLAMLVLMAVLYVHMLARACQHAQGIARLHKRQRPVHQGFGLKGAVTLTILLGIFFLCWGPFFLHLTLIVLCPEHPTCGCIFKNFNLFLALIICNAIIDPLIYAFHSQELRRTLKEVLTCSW

B1: H-Lys(hex-5-ynoyl)Tyr-Val-Nle-Gly-His-DNal(2′)-Arg-DPhe-Asp-Arg-Phe-Gly-NH2 (peptide)
peptide: H-K(Butanoyl(4-ethynyl))YV[Nle]GH[d2Nal]R[dF]DRFG-NH2
SMILES: C#CCCCC(=O)NCCCC[C@H](N)C(=O)N[C@@H](Cc1ccc(O)cc1)C(=O)N[C@H](C(=O)N[C@@H](CCCC)C(=O)NCC(=O)N[C@@H](Cc1c[nH]cn1)C(=O)N[C@H](Cc1ccc2ccccc2c1)C(=O)N[C@@H](CCCNC(=N)N)C(=O)N[C@H](Cc1ccccc1)C(=O)N[C@@H](CC(=O)O)C(=O)N[C@@H](CCCNC(=N)N)C(=O)N[C@@H](Cc1ccccc1)C(=O)NCC(N)=O)C(C)C
notes: Synthetic; alkyne analogue of ligand 7; also called compound 8; ligand 8
One may read the Ki as a measure of affinity in units of concentration, obtained from inhibition or displacement. As for B1, the “1R/4R (selectivity ratio against MC4R)” value in [1] was found to be 1.05. Also, in assay [2], the “1R/5R (selectivity ratio against MC5R)” value came out at 0.93. Also, the Ki in assay [3] was 4.19 nM; in [4], 4.4 nM; in assay [5] it was 3.9 nM.
Take Ac-[hPhe]H[dF]RW-NH2 (Synthetic; also called compound 2) [Ac-Homophenylalanine-His-DPhe-Arg-Trp-NH2]: the inhibitory constant (Ki) was 1.77 nM in assay [3] and 58.2 nM in assay [5].

B2: 4-phenylbutyryl-His-DPhe-Arg-Trp-NH2 (peptide)
peptide: {Butanoyl(4-Ph)}-H[dF]RW-NH2
notes: Synthetic peptidomimetic; also called compound 1
As to B2, in [3], affinity was put at a Ki of 0.17 nM.

B3: 4-phenylbutyryl-His-DPhe-Arg-Trp-Gly-Lys(Mpr-IR800CW)-NH2 (peptide)
peptide: {Butanoyl(4-Ph)}-H[dF]RWGK([Mpa-IR800CW])-NH2
notes: Near-infrared dye conjugate of the MC1R ligand; also called MC1RL-800; MC1RL-800 probe
Regarding B3, in assay [6], the “probe-related fluorescence signal in A375/MC1R tumors after co-injection of 0.25 ug NDP-a-MSH, relative to the unblocked tumor, 2 hr after injection” value amounted to 1.54 fold and the “probe-related fluorescence signal in A375 tumor after co-injection of 0.25 ug NDP-a-MSH, relative to the unblocked tumor, 2 hr after injection” value was determined as 1.4 fold. The “renal uptake of MC1RL-800 after co-injection of 1 nmol/kg MC4R/5R-selective ligand (SEQ ID NO:10), compared to control animals, 2 hr after injection” value in assay [7] was 1.56 fold. For the same molecule, the Ki in assay [8] was found to be 0.4 nM.

B4: H-Tyr-Val-Nle-Gly-His-DNal(2′)-Arg-DTrp-Asp-Arg-Phe-Gly-NH2 (peptide)
peptide: YVLGHXRWDRFG
modifications: Nle; DNal(2′); DTrp; C-terminal amide (NH2)
notes: Synthetic; also called compound 5; ligand 5
For B4, affinity in assay [5] was put at a Ki of 0.76 nM.

B5: H-Tyr-Val-Nle-Gly-His-DNal(2′)-Arg-DPhe-Asp-Arg-Phe-Gly-NH2 (peptide)
peptide: H-YV[Nle]GH[d2Nal]R[dF]DRFG-NH2
SMILES: CCCC[C@H](NC(=O)[C@@H](NC(=O)[C@@H](N)Cc1ccc(O)cc1)C(C)C)C(=O)NCC(=O)N[C@@H](Cc1c[nH]cn1)C(=O)N[C@H](Cc1ccc2ccccc2c1)C(=O)N[C@@H](CCCNC(=N)N)C(=O)N[C@H](Cc1ccccc1)C(=O)N[C@@H](CC(=O)O)C(=O)N[C@@H](CCCNC(=N)N)C(=O)N[C@@H](Cc1ccccc1)C(=O)NCC(N)=O
notes: Synthetic; also called compound 7; ligand 7
For the molecule B5, the “1R/4R (selectivity ratio against MC4R)” value in [1] was 0.13. Besides, the “1R/5R (selectivity ratio against MC5R)” value in [2] is 0.13. Besides, the results for the inhibition constant Ki in assay [3], in assay [4] and in assay [5] were 5.64 nM, 0.77 nM and 0.71 nM, respectively.

B6: 4-phenylbutyryl-His-DPhe-Arg-Trp-Gly-Lys(hex-5-ynoyl)-NH2 (peptide)
peptide: {Butanoyl(4-Ph)}-H[dF]RWGK(Butanoyl(4-ethynyl))-NH2
SMILES: C#CCCCC(=O)NCCCC[C@H](NC(=O)CNC(=O)[C@H](Cc1c[nH]c2ccccc12)NC(=O)[C@H](CCCNC(=N)N)NC(=O)[C@@H](Cc1ccccc1)NC(=O)[C@H](Cc1c[nH]cn1)NC(=O)CCCc1ccccc1)C(N)=O
notes: Synthetic; alkyne-functionalised form of compound 1; also called compound 4
For the molecule B6, the values for the Ki in assay [9] and in [3] were 1.17 nM and 0.24 nM, respectively.

B7: MC1R-Cy5 probe (peptide)
peptide: {Butanoyl(4-Ph)}-H[dF]RWGK([Mpa-Cy5])-NH2
notes: also called Cy5 conjugated ligand; MC1R-635 probe
B7 returned a Ki in assay [8] of 0.3 nM.

The values above are taken from patent publication US20160175384A1 (published 2016).
